Where no end group is shown, it is not given here. [ ]: non-standard residue; d: D form. pGlu = O=C1CC[C@@H](C(=O)O)N1
Target: T1, MitTxβ (Micrurus tener tener (Texas coral snake), UniProt G9I930 31-149, disulfide bonds)
T1 sequence: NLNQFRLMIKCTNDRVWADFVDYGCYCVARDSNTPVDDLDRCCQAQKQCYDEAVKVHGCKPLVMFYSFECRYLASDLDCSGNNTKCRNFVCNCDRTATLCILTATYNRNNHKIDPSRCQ
Assay: ITC

B1: MitTxα (natural protein)
chain: [pGlu]IRPAFCYEDPPFFQKCGAFVDSYYFNRSRITCVHFFYGQCDVNQNHFTTMSECNRVCHG
modifications: not fully specified (bridges); also: disulfide bonds, pairing not given here
- Kd: 12.2 ± 3.1 nM

From PMC3226747 (Nature, 2011)
